Experimental data: patent US20240368282A1 (BIOSCEPTRE AUST, published 2024)

Biological target: T1, dysfunctional P2X7 receptor (human, UniProt Q99572 1-595)
T1 construct: Endogenous on cancer cell lines (MOLM-13, JeKo-1); also called nfP2X7; nfP2X7 receptor
T1 sequence: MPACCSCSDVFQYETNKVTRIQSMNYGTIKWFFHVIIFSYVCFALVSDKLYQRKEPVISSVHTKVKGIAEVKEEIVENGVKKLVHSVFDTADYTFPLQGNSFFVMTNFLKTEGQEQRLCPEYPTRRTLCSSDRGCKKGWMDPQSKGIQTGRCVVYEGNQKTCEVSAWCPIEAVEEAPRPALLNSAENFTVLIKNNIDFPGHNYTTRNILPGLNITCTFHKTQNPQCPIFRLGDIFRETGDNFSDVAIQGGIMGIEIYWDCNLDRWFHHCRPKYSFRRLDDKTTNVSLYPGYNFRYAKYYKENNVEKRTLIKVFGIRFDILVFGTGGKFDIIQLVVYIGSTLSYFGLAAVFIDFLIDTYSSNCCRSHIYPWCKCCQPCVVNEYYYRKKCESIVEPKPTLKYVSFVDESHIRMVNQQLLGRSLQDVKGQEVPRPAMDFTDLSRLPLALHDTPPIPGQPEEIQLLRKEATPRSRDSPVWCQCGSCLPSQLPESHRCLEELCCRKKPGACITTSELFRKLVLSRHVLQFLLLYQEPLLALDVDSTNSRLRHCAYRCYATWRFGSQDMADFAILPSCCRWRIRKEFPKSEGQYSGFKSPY
Test: flow cytometry, anti-HIS-FITC, MOLM-13 cells
Protocol: Indirect staining of artificial proteins on MOLM-13 cells via anti-HIS staining. […] Histogram overlay of HIS-FITC positivity on MOLM-13. […] HIS-ab was used according to manufacturer with 1 μl per test, target cells were incubated with 50 μl of supernatant from Lenti-X™ 293T cells for 10 min at room temperature. Supernatant harvested 48 h after transfection.

B1: Orchestration molecule OR2-3 (nfP2X7), IgG1 format (antibody, V domains shown)
VH: EVQLLESGGGLVQPGGSLRLSCAASGFTFRNHDMGWVRQAPGKGLEWVSAISGSGGSTYYANSVKGRFTISRDNSKNTLYLQMNSLRAEDTAVYYCAEPKPMDTEFDYRSPGTLVTVSS
VL: DIQMTQSPSSLSASVGDRVTITCRASQYIYDYLNWYQQKPGKAPKLLIYAASYLQSGVPSRFSGSGSGTDFTLTISSLQPEDFATYYCQQYHHPSTFGQGTKVEIKR
notes: Tested as supernatant; also called OR2 paired to OR3
binding result: binds
